Assay results taken from patent US20100041597A1, “PEPTIDES TARGETED TO PROTEIN KINASE C ISOFORMS AND USES THEREOF” (priority 2005, published 2010).
Values belong to the substance of their own block, whether it stands above or below them.

Key:
PKC-α = PKC-α (Homo sapiens, UniProt P17252); assay: ELISA-based competitive binding assay with purified PKC isoform; set-up: key to Affinity for PKC isoform α: —: no detectable affinity; Low to very low affinity at 10X or 20X or both PRE concentrations in at least one cell line in the cell extract assay; Low affinity in purified isoform assay.; Moderate affinity at 10X or 20X or both PRE concentrations in at least one cell line in the cell extract assay.; High affinity at 10X or 20X or both PRE concentrations in at least one cell line in the cell extract assay; High affinity in purified isoform assay; details: for Affinity for PKC isoform α: Purified isoform, Table 20; for calculated binding capacity (100-% n) after subtraction of the DMSO apparent binding capacity / inhibition at 50 µM / inhibition at 100 µM / inhibition at 200 µM: purified PKC-α; for inhibition at 50 µM / inhibition at 100 µM / inhibition at 200 µM: read-out: calculated binding capacity (100-% n) after subtraction of the DMSO apparent binding capacity; for targeting of PKC-α: purified isoform, Tables 14-19; for isoform specificity: purified isoforms α, βI, βII, δ, ε, ζ compared
Protocol: (§1) Peptides PRE 1, 2, 3, 4, 5, 6, 7, 8, 9, 10, 11, 12 and 13 (see Table 3) were tested for their ability to interfere with binding of PKC isoform-specific antibodies to their target PKC isoforms using a competitive binding assay and purified PKC isoforms.
(§2) Procedure: Competitive binding was assessed using a 96 well plate ELISA-based assay as described below.
(§3) Greiner 96 well ELISA plates were coated with the appropriate PKC isoform diluted in PBSN (PBS with Calcium/Magnesium+0.05% Sodium azide w/w). 50 μL/well at 250 ng/mL was used. Control wells contained PBSN only. Plates were incubated overnight at 4° C.
(§4) The plates were washed 3 times with 200 μL of dH2O per well, then 100 μL of blocking solution was added per well and the plate incubated for 1 h at 37° C. The washing steps with dH2O were repeated and 50 μL of the appropriate PRE solution (PRE stock solution [20 mM in DMSO] diluted in PBSN) was added and the plate incubated for 1 h at room temperature.
(§5) After incubation, 5 μL of 1.1:400 anti-PKC (isoform specific antibody) was added per well (to provide a final concentration of 1:4000). For PKC-epsilon, 1.1:800 dilution was used and for PKC-zeta a 1.1:100 dilution was used due to high and low binding affinity, respectively. The plates were then incubated 1 h at room temperature, followed by washing with dH2O as described above.
(§6) 50 μL of 1:1000 dilution of Alkaline Phosphatase (AP) conjugated antibody (anti-rabbit for all except zeta, which was anti-goat) was then added and the plate incubated for 1 h at room temperature. Washing with dH2O was then repeated. Finally, 100 μL of pNPP solution in pNPP buffer (2 mM MgCl2, 100 mM Sodium bicarbonate in water, pH 9.8) was added to all wells and incubated for 8 minutes for α, βI, βII ε, and ζ, or for 15-20 mins for […] (until sufficient coloration is observed). The reaction was stopped by addition of Stop solution (2N NaOH) and the absorbance at 405 nm was read on a Galaxy Plate reader.
(§7) Controls were PKC without PRE; blank controls, and controls containing the final concentrations of DMSO used for solubilizing the PREs. The non-specific binding capacity related to DMSO was also measured.
(§8) The antibodies used were as follows: anti-PKC α (Cat. No. SC-208); anti-PKC βI (Cat. No. SC-209); anti-PKC βII (Cat. No. SC-210); anti-PKC δ (Cat. No. SC-213); anti-PKC ε (Cat. No. SC-214); anti-PKC ζ (Cat. No. SC-216-G) (all from Santa Cruz Biotechnology, Inc.). The AP-conjugated antibodies were obtained from Jackson Immuno Research Laboratories (West Grove, Pa.).
(§9) Calculations: The OD values measured at 405 nm represent the free PKC coated per well.
(§10) OD405 PKC alone−Blank OD405 of each sample=OD405 coated isoform
(§11) (OD405 of sample X/OD405 coated isoform)×100=% n that represents the percentage of X binding compared to control.
(§12) 100-% n measures the relative binding capacity of X towards the tested isoform.
(§13) The apparent binding capacity of the DMSO samples was then subtracted from X binding capacity.
(§14) All measurements were made in triplicate and the values in the table represent the averaged calculated binding capacity values after subtraction of the DMSO apparent binding capacity (averaged from 12 values, respectively 10.80, 11.20 and 16.40 corresponding to the concentrations of DMSO used to dilute the […] at 200, 100 and 50 μM respectively). The results allow for quantitative comparison of the binding capacity of each PRE towards an individual isoform within each table, but not among isoforms due to differences in sensitivity of the specific antibodies toward the secondary antibody. This applies particularly to PKC-delta. As noted above, the colour development duration was increased 2-3 times and, as a result, the OD405 measurements may be overestimated for this isoform.

PKC-ε = target: T1, PKC-ε (Homo sapiens, UniProt Q02156); assay: as above; set-up: key to Affinity for PKC isoform ε: —: no detectable affinity; Low to very low affinity at 10X or 20X or both PRE concentrations in at least one cell line in the cell extract assay; Low affinity in purified isoform assay.; Moderate affinity at 10X or 20X or both PRE concentrations in at least one cell line in the cell extract assay.; High affinity at 10X or 20X or both PRE concentrations in at least one cell line in the cell extract assay; High affinity in purified isoform assay; details: for Affinity for PKC isoform ε: Purified isoform, Table 20; for calculated binding capacity (100-% n) after subtraction of the DMSO apparent binding capacity / inhibition at 50 µM / inhibition at 100 µM / inhibition at 200 µM: purified PKC-ε; for inhibition at 50 µM / inhibition at 100 µM / inhibition at 200 µM: read-out: calculated binding capacity (100-% n) after subtraction of the DMSO apparent binding capacity
T1 sequence (Q02156 1-737): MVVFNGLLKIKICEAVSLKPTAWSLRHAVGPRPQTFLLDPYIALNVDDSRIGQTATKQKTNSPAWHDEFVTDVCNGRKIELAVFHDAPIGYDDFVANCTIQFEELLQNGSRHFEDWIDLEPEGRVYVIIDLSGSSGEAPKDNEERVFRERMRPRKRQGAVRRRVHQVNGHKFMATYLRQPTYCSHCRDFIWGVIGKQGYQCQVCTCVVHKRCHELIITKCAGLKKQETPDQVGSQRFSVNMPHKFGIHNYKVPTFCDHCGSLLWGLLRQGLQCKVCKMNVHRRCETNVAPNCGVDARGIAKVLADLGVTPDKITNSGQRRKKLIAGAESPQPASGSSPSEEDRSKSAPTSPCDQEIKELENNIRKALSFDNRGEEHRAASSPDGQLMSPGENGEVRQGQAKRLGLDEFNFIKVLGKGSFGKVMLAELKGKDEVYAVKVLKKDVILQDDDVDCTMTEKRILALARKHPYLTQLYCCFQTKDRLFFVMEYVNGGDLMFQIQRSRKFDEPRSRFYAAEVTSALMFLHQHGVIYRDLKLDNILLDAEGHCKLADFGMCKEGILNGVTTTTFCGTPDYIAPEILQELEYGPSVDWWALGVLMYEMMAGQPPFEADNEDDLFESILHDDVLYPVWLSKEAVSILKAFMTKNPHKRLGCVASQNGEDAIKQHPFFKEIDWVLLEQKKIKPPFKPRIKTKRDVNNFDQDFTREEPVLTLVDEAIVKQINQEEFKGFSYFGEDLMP
Protocol: as §1, §2, §3, §4, §5, §6, §7, §8, §9, §10, §11, §12, §13, §14

Affinity for PKC isoform α (PKC-α): — | Affinity for PKC isoform ε (PKC-ε): —
Substance: Ac-KDAQNLI-NH2 [PRE 12]

Affinity for PKC isoform α (PKC-α): — | calculated binding capacity (100-% n) after subtraction of the DMSO apparent binding capacity (PKC-ε; PRE 50 μM): 0.91 | calculated binding capacity (100-% n) after subtraction of the DMSO apparent binding capacity (PKC-ε; PRE 200 μM): 1.75 | Affinity for PKC isoform ε (PKC-ε): —
Substance: Ac-ISIGILNQADK-NH2 [PRE 10]

Affinity for PKC isoform α (PKC-α): — | calculated binding capacity (100-% n) after subtraction of the DMSO apparent binding capacity (PKC-ε; PRE 50 μM): 2.61 | calculated binding capacity (100-% n) after subtraction of the DMSO apparent binding capacity (PKC-ε; PRE 100 μM): 0.46 | Affinity for PKC isoform ε (PKC-ε): —
Substance: Ac-KDANQLIGISI-NH2 [PRE 6]

calculated binding capacity (100-% n) after subtraction of the DMSO apparent binding capacity (PKC-α; PRE 50 μM): 0.69 | calculated binding capacity (100-% n) after subtraction of the DMSO apparent binding capacity (PKC-α; PRE 200 μM): 2.10 | Affinity for PKC isoform α (PKC-α): — | calculated binding capacity (100-% n) after subtraction of the DMSO apparent binding capacity (PKC-ε; PRE 100 μM): 5.47 | calculated binding capacity (100-% n) after subtraction of the DMSO apparent binding capacity (PKC-ε; PRE 200 μM): 0.83 | Affinity for PKC isoform ε (PKC-ε): —
Substance: RRKKGGKDFVVKR [PRE 1]

Affinity for PKC isoform α (PKC-α): L | Affinity for PKC isoform ε (PKC-ε): L
Substance: Ac-ISIGILQNADK-NH2 [PRE 7]

inhibition at 50 µM (PKC-α; PRE 50 μM): 6.46% | inhibition at 100 µM (PKC-α; PRE 100 μM): 21.9% | inhibition at 200 µM (PKC-α; PRE 200 μM): 22.8% | Affinity for PKC isoform α (PKC-α): H | targeting of PKC-α (PKC-α): targeted most strongly | isoform specificity (PKC-α): specificity for PKC-A | inhibition at 50 µM (PKC-ε; PRE 50 μM): 0% | inhibition at 100 µM (PKC-ε; PRE 100 μM): 0% | inhibition at 200 µM (PKC-ε; PRE 200 μM): 2.58% | Affinity for PKC isoform ε (PKC-ε): —
Substance: Ac-KDAQNLIGISI-NH2 [PRE 4, Ac-KDAQNLIGISI-NH2]

Affinity for PKC isoform α (PKC-α): — | Affinity for PKC isoform ε (PKC-ε): —
Substance: ILEDKGGDAQNLIGISI [PRE 8]

Affinity for PKC isoform α (PKC-α): L | Affinity for PKC isoform ε (PKC-ε): L
Substance: Ac-RDAQNLIGISI-NH2 [PRE 11]

inhibition at 50 µM (PKC-α; PRE 50 μM): 0% | inhibition at 100 µM (PKC-α; PRE 100 μM): 0% | inhibition at 200 µM (PKC-α; PRE 200 μM): 0% | Affinity for PKC isoform α (PKC-α): — | inhibition at 50 µM (PKC-ε; PRE 50 μM): 0% | inhibition at 100 µM (PKC-ε; PRE 100 μM): 0% | inhibition at 200 µM (PKC-ε; PRE 200 μM): 1.8% | Affinity for PKC isoform ε (PKC-ε): —
Substance: Ac-AKGIQEVKGGKDAQNLIGISI-NH2 [PRE 5]

inhibition at 50 µM (PKC-α; PRE 50 μM): 17.5% | inhibition at 100 µM (PKC-α; PRE 100 μM): 26.5% | inhibition at 200 µM (PKC-α; PRE 200 μM): 22.6% | Affinity for PKC isoform α (PKC-α): H | targeting of PKC-α (PKC-α): targeted most strongly | inhibition at 50 µM (PKC-ε; PRE 50 μM): 34% | inhibition at 100 µM (PKC-ε; PRE 100 μM): 31.5% | inhibition at 200 µM (PKC-ε; PRE 200 μM): 31% | Affinity for PKC isoform ε (PKC-ε): H | targeting of PKC-ε (PKC-ε; purified isoform, Tables 14-19): targeted most strongly
Substance: Ac-AKGIQEVKGGDAQNLIGISI-NH2 [PRE 3]
isoform specificity (PKC-α): “universal” PKC targeting peptide, with the exception of the PKC-βII isoform

calculated binding capacity (100-% n) after subtraction of the DMSO apparent binding capacity (PKC-α; PRE 100 μM): 5.35 | Affinity for PKC isoform α (PKC-α): — | calculated binding capacity (100-% n) after subtraction of the DMSO apparent binding capacity (PKC-ε; PRE 50 μM): 16.35 | calculated binding capacity (100-% n) after subtraction of the DMSO apparent binding capacity (PKC-ε; PRE 100 μM): 8.53 | Affinity for PKC isoform ε (PKC-ε): L
Substance: Ac-isigilgnadk-NH2 [PRE 9]

Affinity for PKC isoform α (PKC-α): — | Affinity for PKC isoform ε (PKC-ε): —
Substance: Ac-RDAQNLI-NH2 [PRE 13]
